B1: C4sh1A6 (antibody, V domains shown)
VH: QVQLVESGGGVVQPGRSLRLSCAASGFTFSTYAMHWVRQAPGRGLEWVAGISYDGSNKYHADPVKGRFTISRDNSKNTLYLQMNNLRVEDSAVYYCAGDRSGGLDVWGQGTTVTVSS
VL: DIVMTQSPSSLSASVGDRVTITCRASQGISNSLAWYQQKSGKAPKLLLYAASGLESGVPSRFSGSGSGTDYTLTISSLQPEDFATYYCQQSYSMPLTFGGGTKVEIK
B2: C4sh1B2 (antibody, V domains shown)
VH: QMQLVQSGAEVKKPGASVKVSCKASGYTFTGYYIHWVRQAPGQGLEWMGWINPNSGGTIYAQKFQGRVTMTRDTSISTAYMELSRLRSDDTAVYYCARGSTNFDSWGQGTLVTVSS
VL: QAGLTQPPSASGSPGQSVTISCTGTSSDVGGYNSVSWYQQHPGKAPKLMIYDVSNRPSGVSNRFSGSKSGNTASLTISGLQAEDEADYYCSSYINSGTLVFGGGTKLTVL
B3: C4R1B2 (antibody, V domains shown)
VH: QVQLVQSGAEVKKPGASVKVSCKASGYGFTSYAIHWLRQAPGQRLEWMGWINPGNGNTKYSQKFQGRVTITRDTSATTAYMELTSLRSEDSDTAVYYCARDLDGGSFDHWGQGTLVTVSS
VL: QSVVTQPASVSGSPGQSITISCTGTSSDVGSYNLVSWYQQHPGKAPKLMIYDVTNRPSGVSNRFSGSKSGNTASLTISGLQAEDEADYYCSSYTRSSTYVFGTGTKVTVL

Assays:
[1] = target: endogenous human CD147 expressed on human cancer cells (human) (UniProt P35613); assay: flow cytometry on A549 cells
[2] = target: endogenous human CD147 expressed on human cancer cells (human) (UniProt P35613); assay: flow cytometry on K562 cells
[3] = target: endogenous human CD147 expressed on human cancer cells (human) (UniProt P35613); assay: flow cytometry on PC-3 cells

Row | Binder | EC50 [1] [nM] | EC50 [2] [nM] | EC50 [3] [nM]
1 | B1 | 35.9 | 0.6 | > 100
2 | B2 | 3.73 | 1.55 | 4.5
3 | B3 | 83.8 | 168 | > 100
